In data set [1] the target is T1, mouse serum albumin (MSA) (Mus musculus, UniProt P07724).
T1 construct: purchased Sigma-Aldrich (St. Louis, MO)
Kind of data set: Isothermal titration calorimetry of ABD-Dox with MSA. The data set is classed as binding. The conditions noted are these: ITC, 37° C., PBS. The method, then: The gel was stained with SimplyBlue stain according to the manufacturer's instructions and imaged using the Gel Doc imaging system (Bio-Rad, Hercules, CA). Isothermal titration calorimetry was done using a standard volume Nano ITC from TA instruments (Lindon, Utah). […] The calorimetric data were analyzed by NanoAnalyze software (TA instruments, Lindon, UT) and were fit to an independent binding site model to compute the thermodynamic parameters including dissociation constant (KD), binding stoichiometry (n), enthalpy (ΔH), and entropy (ΔS).
(In general: ITC needs no label: the signal is the heat of the interaction.)

The nature of data set [2]: Dose-escalation study, maximum tolerated dose. The data set is classed as in vivo, BALB/c mice. How it is done:
With these encouraging biodistribution results in hand, tumor regression in vivo by ABD-Dox was investigated. The maximum tolerated dose (MTD) of ABD-Dox was established in healthy mice. A range of doses of ABD-Dox were injected into healthy BALB/c mice, and body weight loss and mortality of the mice were monitored over a two-week period to assess systemic toxicity. […] Using these criteria, the MTD was determined to be 20 mg Dox Equiv.kg^−1 for ABD-Dox (FIG. 7) and 10 mgkg^−1 BW MTD of free Dox (FIG. 8).

A further data set is described as follows: Aqueous solubility. The settings on record: pH 7.4 PBS. The data set is classed as physicochemical. The method, then: To remove the ELP160 tag, the KEKE-ELP160-srt-ABD-Dox conjugate was buffer exchanged into sortase reaction buffer, and was reacted with (His)6-sortase A-ELP40 in the presence of a 50 fold molar excess of triglycine (FIG. 2A). The efficiency of the sortase reaction, defined as the percent conversion of ELP-ABD-Dox substrate to ABD-Dox, was determined by size exclusion HPLC and was calculated to be ≥85% (FIG. 3A). The ABD-Dox product was then separated from (His)6-sortase A-ELP40, the cleaved KEKE-ELP160 tag, and unreacted KEKE-ELP160-srt-ABD-Dox in the sortase reaction solution by preparative size exclusion chromatography (SEC). The number of Dox molecules conjugated per ABD (Dox/ABD molar ratio) was measured before the sortase reaction by dissolving the lyophilized KEKE-ELP160-srt-ABD-Dox conjugate in PBS and calculating the moles of KEKE-ELP160-srt-ABD-Dox and Dox gravimetrically and spectrophotometrically at 488 nm, respectively. 3-4 Dox molecules were attached to each KEKE-ELP160-srt-ABD-(CGG)8. However, following removing the ELP160 tag, the resulting ABD-Dox conjugate was too hydrophobic and insoluble in pH 7.4 PBS because of the high number of conjugated Dox molecules. […] Formulation of AlDox in acidic pH, however, is undesirable as it can trigger the premature, in vitro degradation of the hydrazone bond between Dox and EMCH, converting AlDox back to free Dox.

“And” between values parts separate entries of the source, which are not always exact repeats. Equal values may be shown once.

T1 sequence (P07724 25-608): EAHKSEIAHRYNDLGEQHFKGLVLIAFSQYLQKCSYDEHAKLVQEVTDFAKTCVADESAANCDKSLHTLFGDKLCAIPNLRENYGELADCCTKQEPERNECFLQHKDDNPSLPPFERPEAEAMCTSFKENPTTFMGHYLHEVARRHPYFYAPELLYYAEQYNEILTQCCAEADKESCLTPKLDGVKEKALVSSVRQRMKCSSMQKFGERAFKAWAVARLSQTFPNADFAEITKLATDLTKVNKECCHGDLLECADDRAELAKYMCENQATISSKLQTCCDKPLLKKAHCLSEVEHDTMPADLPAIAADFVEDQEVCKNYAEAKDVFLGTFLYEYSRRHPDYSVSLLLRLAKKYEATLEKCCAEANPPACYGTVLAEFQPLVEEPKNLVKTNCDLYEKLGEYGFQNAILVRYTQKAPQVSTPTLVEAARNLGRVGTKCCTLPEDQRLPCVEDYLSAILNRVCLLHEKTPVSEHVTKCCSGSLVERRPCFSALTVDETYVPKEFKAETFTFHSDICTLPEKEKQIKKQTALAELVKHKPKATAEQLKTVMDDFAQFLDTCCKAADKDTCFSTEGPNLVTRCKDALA

In data set [1], “ABD-Dox (GLAEAKVLANRELDKYGVSDYYKNLINNAKTVEGVKALIDEILAALPCGGCGGCGGCGG)” showed a ΔH of -4.45 kcal/mol and a ΔS of 76.6 Jmol^−1K^−1. In addition, the “n (binding stoichiometry)” value in data set [1] (independent binding site model) is 0.94 and 0.9. Besides, the “maximum tolerated dose (MTD)” value in data set [2] (i.v., healthy BALB/c mice, two weeks, no mortality or body weight loss greater than 15%) was 20 mg Dox Equiv.kg^−1. The “maximum tolerated dose, fold higher than free drug” value in data set [2] (mouse, in vivo) is 2 fold. In addition, the aqueous solubility entry in “Aqueous solubility” is “up to 4 mg Dox Equiv.mL^−1”.
